Results reported in article doi:10.1101/2024.10.07.617058.
pKd: −log10 of the molar value.

Target: Twin-Strep-tagged human exocyst Subcomplex-1 (Exoc1:Exoc2:Exoc3:Exoc4) (human) (UniProt Q9NV70)
Assay: SPR

Sequence of UniProt Q9NV70 (Q9NV70 whole entry, chain 1 of 4): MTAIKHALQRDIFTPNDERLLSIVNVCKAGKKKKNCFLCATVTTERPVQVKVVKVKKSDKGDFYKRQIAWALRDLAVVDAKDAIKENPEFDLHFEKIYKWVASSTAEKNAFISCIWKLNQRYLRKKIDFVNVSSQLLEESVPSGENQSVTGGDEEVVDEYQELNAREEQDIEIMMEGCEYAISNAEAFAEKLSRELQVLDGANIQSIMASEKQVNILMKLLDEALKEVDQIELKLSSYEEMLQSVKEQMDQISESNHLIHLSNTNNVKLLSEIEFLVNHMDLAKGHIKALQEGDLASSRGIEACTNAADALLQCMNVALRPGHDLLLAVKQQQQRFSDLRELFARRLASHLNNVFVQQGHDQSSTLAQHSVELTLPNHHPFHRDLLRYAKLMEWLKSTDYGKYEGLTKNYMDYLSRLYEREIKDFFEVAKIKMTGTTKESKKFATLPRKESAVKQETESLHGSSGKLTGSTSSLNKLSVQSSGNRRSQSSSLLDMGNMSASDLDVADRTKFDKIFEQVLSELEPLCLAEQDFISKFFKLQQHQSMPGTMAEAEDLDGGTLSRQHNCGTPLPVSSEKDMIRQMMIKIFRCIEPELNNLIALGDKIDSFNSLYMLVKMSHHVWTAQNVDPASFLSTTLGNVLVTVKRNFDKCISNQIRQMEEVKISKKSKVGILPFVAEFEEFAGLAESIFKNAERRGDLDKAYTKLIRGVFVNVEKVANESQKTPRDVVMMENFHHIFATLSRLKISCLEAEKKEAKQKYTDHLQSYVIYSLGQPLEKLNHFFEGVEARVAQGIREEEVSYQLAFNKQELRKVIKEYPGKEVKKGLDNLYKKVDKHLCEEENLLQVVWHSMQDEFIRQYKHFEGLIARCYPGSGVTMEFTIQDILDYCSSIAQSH
Sequence of UniProt Q9NV70 (Q96KP1 whole entry, chain 2 of 4, further chain): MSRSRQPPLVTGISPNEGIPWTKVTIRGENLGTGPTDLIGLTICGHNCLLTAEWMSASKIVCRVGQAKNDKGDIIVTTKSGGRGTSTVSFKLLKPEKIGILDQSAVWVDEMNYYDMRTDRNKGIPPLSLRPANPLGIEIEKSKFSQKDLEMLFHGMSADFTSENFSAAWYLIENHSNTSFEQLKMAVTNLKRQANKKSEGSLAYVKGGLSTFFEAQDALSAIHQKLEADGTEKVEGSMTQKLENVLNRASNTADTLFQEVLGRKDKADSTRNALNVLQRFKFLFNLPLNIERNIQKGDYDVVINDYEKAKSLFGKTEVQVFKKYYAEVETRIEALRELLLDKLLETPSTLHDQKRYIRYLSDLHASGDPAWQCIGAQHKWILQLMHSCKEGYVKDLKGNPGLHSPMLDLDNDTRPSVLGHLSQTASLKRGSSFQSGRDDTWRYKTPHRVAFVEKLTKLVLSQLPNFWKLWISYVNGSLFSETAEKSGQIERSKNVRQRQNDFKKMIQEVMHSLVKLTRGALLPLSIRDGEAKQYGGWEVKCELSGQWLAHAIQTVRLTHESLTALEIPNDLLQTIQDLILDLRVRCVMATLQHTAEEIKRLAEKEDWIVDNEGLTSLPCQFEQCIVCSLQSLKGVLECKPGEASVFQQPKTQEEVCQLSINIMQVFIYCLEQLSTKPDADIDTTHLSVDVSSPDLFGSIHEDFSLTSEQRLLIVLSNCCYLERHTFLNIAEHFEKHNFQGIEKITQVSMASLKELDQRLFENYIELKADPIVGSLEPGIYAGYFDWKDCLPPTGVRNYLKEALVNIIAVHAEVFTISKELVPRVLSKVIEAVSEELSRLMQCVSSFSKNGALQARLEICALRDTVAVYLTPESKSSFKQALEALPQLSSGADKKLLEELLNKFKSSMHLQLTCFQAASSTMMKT
Sequence of UniProt Q9NV70 (O60645 whole entry, chain 3 of 4, further chain): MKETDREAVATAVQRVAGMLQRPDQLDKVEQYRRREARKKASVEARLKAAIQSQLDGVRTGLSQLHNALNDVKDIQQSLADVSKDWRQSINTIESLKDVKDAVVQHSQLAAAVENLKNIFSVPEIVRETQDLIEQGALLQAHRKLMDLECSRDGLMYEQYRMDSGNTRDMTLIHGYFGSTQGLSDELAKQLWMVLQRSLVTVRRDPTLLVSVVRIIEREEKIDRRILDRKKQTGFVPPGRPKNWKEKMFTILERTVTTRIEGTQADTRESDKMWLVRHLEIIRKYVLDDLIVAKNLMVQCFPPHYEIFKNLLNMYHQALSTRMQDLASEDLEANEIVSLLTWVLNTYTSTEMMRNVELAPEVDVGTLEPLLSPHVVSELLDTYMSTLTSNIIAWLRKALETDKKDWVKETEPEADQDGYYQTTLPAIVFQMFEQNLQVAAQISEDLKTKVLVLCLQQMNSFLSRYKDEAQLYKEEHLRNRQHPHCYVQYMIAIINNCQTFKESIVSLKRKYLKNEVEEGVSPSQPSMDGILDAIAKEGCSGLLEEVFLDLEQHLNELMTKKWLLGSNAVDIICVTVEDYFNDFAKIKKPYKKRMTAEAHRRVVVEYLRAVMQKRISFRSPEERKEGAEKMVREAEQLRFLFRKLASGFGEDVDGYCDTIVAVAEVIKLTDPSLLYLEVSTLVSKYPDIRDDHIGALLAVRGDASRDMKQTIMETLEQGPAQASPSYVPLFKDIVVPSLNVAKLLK
Sequence of UniProt Q9NV70 (Q96A65 whole entry, chain 4 of 4, further chain): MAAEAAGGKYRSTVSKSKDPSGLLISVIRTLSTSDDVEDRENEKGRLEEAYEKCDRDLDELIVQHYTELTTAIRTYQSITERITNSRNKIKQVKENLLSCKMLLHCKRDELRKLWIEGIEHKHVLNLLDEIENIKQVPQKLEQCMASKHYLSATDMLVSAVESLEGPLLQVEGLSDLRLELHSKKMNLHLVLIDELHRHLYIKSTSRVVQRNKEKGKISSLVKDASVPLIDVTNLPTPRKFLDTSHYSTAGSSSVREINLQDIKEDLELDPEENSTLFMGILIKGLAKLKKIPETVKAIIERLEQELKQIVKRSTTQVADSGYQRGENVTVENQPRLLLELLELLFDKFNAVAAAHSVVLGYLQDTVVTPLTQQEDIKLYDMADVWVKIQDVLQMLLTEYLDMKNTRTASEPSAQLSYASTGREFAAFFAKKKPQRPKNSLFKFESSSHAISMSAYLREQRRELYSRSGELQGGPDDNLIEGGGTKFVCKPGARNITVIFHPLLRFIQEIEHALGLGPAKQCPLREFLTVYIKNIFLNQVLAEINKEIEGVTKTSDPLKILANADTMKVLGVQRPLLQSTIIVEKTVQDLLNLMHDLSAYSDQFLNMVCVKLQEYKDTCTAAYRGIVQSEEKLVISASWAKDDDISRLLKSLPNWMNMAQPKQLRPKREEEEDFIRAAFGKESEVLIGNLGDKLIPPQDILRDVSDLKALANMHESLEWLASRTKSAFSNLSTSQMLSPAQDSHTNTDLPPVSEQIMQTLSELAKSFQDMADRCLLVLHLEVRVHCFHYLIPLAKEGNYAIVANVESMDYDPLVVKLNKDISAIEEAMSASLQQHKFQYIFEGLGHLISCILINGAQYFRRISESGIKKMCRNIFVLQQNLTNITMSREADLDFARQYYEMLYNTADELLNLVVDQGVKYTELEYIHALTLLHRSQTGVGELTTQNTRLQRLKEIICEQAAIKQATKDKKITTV

In the case of “human exocyst Subcomplex-2 (Exoc5:Exoc6:Exoc7:Exoc8) (from UniProt O00471 1-708; Q8TAG9 1-804; Q9UPT5 1-735; Q8IYI6 1-725)”, the pKd was 7.11.
